# Laboratory results: US9051591B2, “Bacterium of enterobacteriaceae family producing L-aspartic acid or L-aspartic acid-derived metabolites and a method for producing L-aspartic acid or L-aspartic acid-derived metabolites” (AJINOMOTO CO., INC., priority 2010, dated 2015)
# T1: Polaromonas sp. aspartate dehydrogenase (Polaromonas sp., UniProt Q126F5)
# T1 sequence (Q126F5 1-267): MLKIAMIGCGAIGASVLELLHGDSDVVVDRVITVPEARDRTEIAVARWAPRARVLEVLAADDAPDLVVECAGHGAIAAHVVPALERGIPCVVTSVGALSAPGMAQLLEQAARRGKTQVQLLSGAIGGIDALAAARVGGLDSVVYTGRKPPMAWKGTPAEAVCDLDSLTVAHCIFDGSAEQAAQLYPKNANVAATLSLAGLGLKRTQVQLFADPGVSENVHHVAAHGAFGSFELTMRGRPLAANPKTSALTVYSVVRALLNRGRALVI
# T2: ADH (Polaromonas sp.) (Polaromonas sp., UniProt Q126F5)
# T2 sequence (Q126F5 1-267): T1 sequence (Q126F5 1-267)
# T3: purified ADH (Polaromonas sp.) (Polaromonas sp., UniProt Q126F5)
# T3 sequence (Q126F5 1-267): T1 sequence (Q126F5 1-267)
# T4: Ralstonia eutropha ADH-Re (Cupriavidus necator, UniProt Q0K391)
# T4 sequence (Q0K391 with tags, fused parts or gaps): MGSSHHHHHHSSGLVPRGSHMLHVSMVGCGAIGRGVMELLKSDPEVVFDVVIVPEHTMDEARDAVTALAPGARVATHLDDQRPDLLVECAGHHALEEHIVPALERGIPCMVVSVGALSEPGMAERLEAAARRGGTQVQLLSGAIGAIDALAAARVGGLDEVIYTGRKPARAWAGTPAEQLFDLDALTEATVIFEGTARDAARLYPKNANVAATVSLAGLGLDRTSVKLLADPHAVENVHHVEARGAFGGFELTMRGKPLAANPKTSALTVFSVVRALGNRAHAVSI
# B1: Polaromonas sp. ADH (Polaromonas sp. JS666) (protein)
# chain: T1 sequence (Q126F5 1-267)
# B2: Bradyrhizobium japonicum ADH-Bj (Bradyrhizobium diazoefficiens USDA 110) (protein)
# chain: MGSSHHHHHHSSGDRRWKVMTDQTASSELRVAIAGLGSIGTKIAAALDQGEGLTLSAVAVRDPAKHQAFLNGLRRPPQVLPIDQLGEAADIVVECAPSSQLRAIVEPAVKRGKAAVVVSVGGLLDNFDLVDLARANGGRIIVPTGALIGLDAVNAAVIGTIHSVKMVTRKPIDGLKGAPFIVHNNIDIDTLREPLKLFEGTAREAAKGFPANLNVAVALSLAGVGPDRTSVQIWADPTVTRNVHRIEVEADSARFSMSIENIPSENPKTGLITALSVIALLRKQRATLCVGT
# B3: Ralstonia eutropha ADH-Re (Cupriavidus necator H16) (protein)
# chain: T4 sequence (Q0K391 with tags, fused parts or gaps)
# B4: Rhodopseudomonas palustris ADH1-Rp (Rhodopseudomonas palustris HaA2) (protein)
# chain: MRSGRAPQRVAIAGLGAIGKAIARELDRGLDGLTLGAVASGDPEKHRAFLDGLRTTPPVVPLDQLHAHADLVIEAAPSRLLRAIVEPFVSRGRTAIVLSAAALLQNEDLIDLANLNGGQIIVPTGALIGLDAVTAAAVGTIHSVRMITRKPVDGLRGAPFIVDNGIDLDGLREPLKLFEGTAREAGKGFPANLNVAVALSLAGIGPDRTMVEIWADPGVTRNTHRIEVDADSARFAMTIENVPSDNPRTGLITPLSVIALLRKQSAALRVGT
# Columns and labels:
# [1] = biological target: T1, Polaromonas sp. aspartate dehydrogenase; assay: Regulatory properties of the ADH; settings: addition of 1 mM, 29° C., pH 9.8
# ADH (Polaromonas sp.) = biological target: T2, ADH (Polaromonas sp.); assay: Screening of substrate specificity, ADH; settings: relative to oxaloacetate; 20 mM substrate, […] NADH, pH 9
# [2] = biological target: T3, purified ADH (Polaromonas sp.); assay: Screening of alternative substrates for purified ADH; settings: 10 mM, 29° C.; for ability to replace oxaloacetate in forward reaction: […] NADH, 50 mM NH4Cl; for ability to replace aspartic acid in reverse reaction: 1 mM NAD^+
# ADH-Re = assay: Screening of substrate specificity, ADH-Re; settings: relative to oxaloacetate; 20 mM substrate, […] NADH, pH 9
# [3] = biological target: T4, Ralstonia eutropha ADH-Re; settings: amination; summary range over Hill and Michaelis-Menten fits
# [4] = substrate: NC(=O)c1ccc[n+]([C@@H]2O[C@H](COP(=O)([O-])OP(=O)(O)OC[C@H]3O[C@@H](n4cnc5c(N)ncnc54)[C@H](O)[C@@H]3O)[C@@H](O)[C@H]2O)c1; assay: purified protein, by the assay type
# [5] = substrate: O=C(O)CC(=O)C(=O)O; assay: purified protein, by the assay type; settings: other: Oxaloacetate reductive amination; Michaelis-Menten plots
# [6] = substrate: N[C@@H](CC(=O)O)C(=O)O; assay: purified protein, by the assay type; settings: other: Aspartate oxidative deamination; Michaelis-Menten plots
# [7] = other: Aspartic acid oxidative deamination, Michaelis-Menten plots
# [8] = other: Aspartate oxidative deamination
# [9] = other: Aspartate oxidative deamination, Michaelis-Menten plots
# [10] = other: Aspartic acid oxidative deamination
molecule,measurement,setting,value
O=C(O)CC(O)C(=O)O (stereo not drawn) [malate],effect on ADH activity in forward and reverse reactions,[1],not significantly affected
CC(=O)C(=O)O [pyruvate],"Amination activity, ADH",ADH (Polaromonas sp.),na (no activity (<0.2%))
same,ability to replace oxaloacetate in forward reaction,[2],No activity
CC(C)[C@H](N)C(=O)O [valine],ability to replace aspartic acid in reverse reaction,[2],No activity
CCC(N)C(=O)O (stereo not drawn) [α-aminobutyrate],ability to replace aspartic acid in reverse reaction,[2],No activity
CCC(=O)C(=O)O [α-ketobutyrate],"Amination activity, ADH",ADH (Polaromonas sp.),na (no activity (<0.2%))
same,"Amination activity, ADH-Re",ADH-Re,na (no activity (<0.2%))
same,ability to replace oxaloacetate in forward reaction,[2],No activity
O=C(O)CCC(=O)C(=O)O [α-ketoglutarate],"Amination activity, ADH-Re",ADH-Re,na (no activity (<0.2%))
NADPH,Km,[3],390 to 900 µM
B1,Km,[4]; [7],0.424 ± 0.010 mM
same,Vmax,[4]; [7],32 µmol/min/mg
same,kcat,[4]; [7],14.68 ± 0.1 s⁻¹
same,Km,[5],2.2 ± 0.3 mM
same,Vmax,[5],74 µmol/min/mg
same,kcat,[5],33.8 ± 1.5 s⁻¹
B2,Km,[4]; [8],10 ± 3 mM
same,Vmax,[4]; [8],6.5 µmol/min/mg
same,kcat,[4]; [8],3.33 ± 0.5 s⁻¹
same,kcat/Km,[4]; [8],333 M⁻¹ s⁻¹
B3,Km,[4]; [9],1.7 ± 0.4 mM
same,Vmax,[4]; [9],37 µmol/min/mg
same,kcat,[4]; [9],18.7 ± 1.5 s⁻¹
same,Km,[6],13 ± 3 mM
same,Vmax,[6],23 µmol/min/mg
same,kcat,[6],11.5 ± 1 s⁻¹
same,kcat/Km,[6],833 M⁻¹ s⁻¹
same,Km,[5],3.3 ± 0.4 mM
same,kcat,[5],58.3 ± 2.33 s⁻¹
B4,Km,[4]; [10],7.0 ± 0.3 mM
same,Vmax,[4]; [10],3.11 µmol/min/mg
same,kcat,[4]; [10],1.58 ± 0.0333 s⁻¹
same,kcat/Km,[4]; [10],227 ± 15 M⁻¹ s⁻¹
